The text below walks through data of article PMC10592355.

One may read the Kd as a measure of binding affinity in units of concentration.

One data set relates to TyrRS WT (Homo sapiens). The data set can be described thus: filter binding. The conditions noted are these: Filter binding: 10 mM HEPES pH 7.5, 4 mM KCl, 0.02 mg/mL BSA, 0.2 mM DTT, 30 min RT, TyrRS 125 nM to 8 uM, wash 60 mM HEPES pH 7.5, 10 mM MgCl2; EMSA ….
For data set [1], the system named is TyrRS K244Q (Homo sapiens). The data set can be described thus: filter binding. The following applies: Filter binding: 10 mM HEPES pH 7.5, 4 mM KCl, 0.02 mg/mL BSA, 0.2 mM DTT, 30 min RT, TyrRS 125 nM to 8 uM, wash 60 mM HEPES pH 7.5, 10 mM MgCl2; EMSA …. (Mobility shift assays separate free from complexed probe on a gel.)

human tRNATyr transcript: the results for the Kd (with TyrRS WT (Homo sapiens); in data set [1]) were 849 nM and 1180 nM, respectively.
